Laboratory results: the RNAGym collection of RNA variant scans (doi:10.1073/pnas.2313332121)

B1: TPR t1 (parent)
chain: GACCAAUCUGCCCUCAGAGCUCGAGAACAUCUUCGGAUGCAGAGGAGGCAGGCUUCGGUGGCGCGAUAGCGCCAACGUCCUCAACCUCCAAUGCAUCCCACCACAUGAUGAUGCCUGAAGAGCCUUGGUUUUUUG

Variants of: B1
Assay: polymerase ribozyme fitness, log enrichment relative to wild type (log ratio); higher = more active; in vitro selection for triplet polymerase activity
Procedure, shortened: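 To select mutant libraries of each subunit of a heterodimeric triplet polymerase ribozyme, built by PCR and transcribed, each was annealed with a biotinylated primer, partner subunit and triplets, then incubated frozen at −7 °C. Extended constructs were gel-excised, captured on streptavidin beads and amplified by RT-PCR, in one round carried out in triplicate. Illumina sequencing of input and output libraries kept genotypes with ≥10 input reads and ≥1 read per output. Fitness is the base-2 logarithm of genotype enrichment relative to wild-type enrichment, from inverse-variance-weighted replicate averages.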

In order of rising “polymerase ribozyme fitness (log ratio)” value:
1. C3A U32A C64G C99A  -7.73
2. C4A A41U G58C G117A  -7.2
3. C4A A6C A46C C49A C70A C72G A84C A119U C123A U126G  -6.91
4. C3A C64U G71A G110U U129G  -6.8
5. C3U C70A U78C A91C C97G A121U  -6.74
6. A2U C11U G45A U81C  -6.34
7. A2G G60C G71U A91C G120C  -6.25
8. A2U C22U C86U G110U  -6.04
9. A2U C4A U33G C49G G58C A121C  -5.98
10. C3U C11G C12A A50U C56G A83U G93C G113U  -5.9
11. A2U C8G A27C G36C C40G G60A G93C G110U U130G  -5.89
12. C3A C13A C20A A66G G117A  -5.73
13. C3U G23A G39U G48C A68G C99U C114A  -5.71
14. A2G G10C G51C G52U  -5.66
15. C3A G39C C72U U92A A111G  -5.51
16. C3U A6U C20G A37U C72U C82U G113A A119C U129C U133A  -5.44
17. C3G C12G C53A G61U C114G  -5.41
18. A2G G107U  -5.37
19. C4A A18C C49U C85U C114G  -5.25
20. A2U C13A C73G  -5.15
21. C4A A29U G48U G71U U109G  -5.09
22. A2U C62U G117U  -5.02
23. A2G C22A  -4.99
24. C3A A46U A50U G57A  -4.95
25. C3A C4G G10A G61U A74C C123G  -4.94
26. A2U C11A U33A A37U G61U G120A  -4.91
27. C3G A18C C22A A26G G60U A95U G120A  -4.84
28. C3G C22A G69A C124G G128C  -4.83
29. C3U C56U G69C C76G C115U G127U  -4.79
30. C3G U55C C72U G93A  -4.63
31. C4A A29C G69U G110A G120A G127A  -4.61
32. A2U C72U G110A  -4.59
33. A2U G71U A74C  -4.54
34. C4A A18G C89A A100C G113A C124U  -4.48
35. C3U G48C C76A C79A C101G  -4.45
36. A2G G19A A43G C80U C104U  -4.42
37. C3A C13U C62U G113U  -4.41
38. C3G G47C G52A U87A C124G  -4.41
39. A2U A5C A26G U54A  -4.4
40. C3U U7C A18C G52A C72U C94A  -4.4
41. A2U G58C C72G C88U  -4.39
42. A2G C114A U126C  -4.32
43. C3A C53U U55A C73A G117A  -4.29
44. A2U C8U G47C G93U  -4.25
45. C3G G44U G45U C89A C94U A111U C123U U129C G135A  -4.23
46. A2G G35C C124A  -4.18
47. A2G C13U A46U C86A G113U G120U C123G  -4.13
48. C3U G39C G117U U133G  -4.12
49. A2G C82A A111U  -4.1
50. C3A C56G G61A U81A U131C  -4.05
51. C3U A6U G52U A111U A118U  -4.02
52. A2U A91C G120U  -3.98
53. A2U C115G  -3.95
54. C3G C11A G36C C64U  -3.94
55. C3G A43U  -3.88
56. C3U G47A C62U A105U A118G  -3.83
57. A2U A46U G47C G71A U132C  -3.81
58. C3A C56A C89A C115U  -3.79
59. C3G A46U C72A G113C  -3.77
60. C3U U55C C89U C115U  -3.75
61. C3G A24G  -3.73
62. C4A A91U  -3.65
63. C3A C72A G110U  -3.62
64. A2U G60A A91G C124U  -3.61
65. C3U C56U C115U G127U  -3.57
66. A2U G39C G45A U132A  -3.5
67. C3U A41G C102A G120A  -3.46
68. A2U C53G C88G  -3.42
69. C4A A46C C64U C114A C124A U131G  -3.27
70. A2U U14G U106G G120A C124G  -3.26
71. A2U U32C G48A C49G C64U  -3.23
72. C3A C11U C49G C53A G60A C101A  -3.22
73. A2U A50U  -3.14
74. A2U C40U G47U C72U C124A  -3.11
75. A2U C13A C73U A74G  -3.05
76. C3G C102U C123A  -2.99
77. C3U G10A G45U A74C U81A  -2.98
78. A2U C102U G113A U129A  -2.88
79. A2U C88G U130A  -2.84
80. C3U U59C A111G G120U  -2.84
81. C3A C85U A90U C114U G127C  -2.77
82. C3A C8G C88U A90C G110A U132A  -2.77
83. C3U C13U C34U G69U C85U  -2.76
84. C3U C11A U78A  -2.75
85. A2G G47U A84C C88U A90U A91C U133G  -2.71
86. C3U C34A C53A C79U C88U C97U  -2.66
87. A2U U54C C115A  -2.65
88. C3G A50C C73A A95U  -2.64
89. A2G C28U G110U  -2.63
90. C3U A16C G17A U54C U78C A90C  -2.6
91. C3A C102A U106C G120U C124U  -2.57
92. C3G C97U  -2.53
93. A2G G45U C82A  -2.5
94. C3U G113U  -2.47
95. A2U G110U  -2.47
96. C3U U14A  -2.47
97. A2G G48U C80U U130C  -2.35
98. C3U G61U C85U C101A  -2.34
99. C3G C12G C62U  -2.34
100. C3U G45C  -2.34
101. C3U C15U G39C  -2.34
102. C3U A43C C73A U87G  -2.3
103. C3U G47U A50C  -2.21
104. A2G G39U G57C A74U U112A C114G  -2.17
105. C3A U14G C62A A119U G120A  -2.14
106. C3U C73G A83G  -2.1
107. C3G C72G  -2.06
108. C3U G45U C72G  -2.05
109. C3G G47U G48C C82G C123U  -1.92
110. C3U G45A G48U G60A  -1.92
111. A2U G61A G127C  -1.88
112. C3U A50C A74C U96G  -1.84
113. A2G C62U A83G  -1.82
114. C3G C49A G57U C64U G120U G128U  -1.81
115. A2G U9C C13U A18U C56G A95G  -1.78
116. C3A G10U U38A C49U C82U G128A U131G  -1.74
117. C3A C53G  -1.72
118. A2G C56A C73U A84U G120U  -1.68
119. C3A G44C C53U C123A  -1.67
120. C4A A119U  -1.66
121. A2G G52U G69C C86U  -1.64
122. C3A G48A C72U A84G  -1.58
123. C4A A41C C64U  -1.54
124. C3U G19A C53G U87A C124A  -1.53
125. C4A A37U C72U U78A  -1.52
126. C3A C8A C12A G61A  -1.5
127. C3U A50G U55G G63A  -1.45
128. A2G U55G G135U  -1.42
129. C3U C73U A100C  -1.36
130. C3U C56G C73U  -1.31
131. A2U C11G G48U G93U G120C G122U  -1.28
132. C3U G77A C94G  -1.2
133. A2G C82G  -1.18
134. C3U G93C U112A C123G  -1.14
135. C3U C13G A90U  -1.11
136. A2G C12U C101U A105U C115A  -1.02
137. A2G U7A C70U A74C  -0.954
138. A2U C82U C86G A121G  -0.832
139. C3U C62A C72U  -0.819
140. A2G C13U A91C G122A  -0.77
141. C4A A16G U54G C101A U112A A119G  -0.726
142. C3U G47A  -0.64
143. A2U A121U  -0.628
144. C3U C13U G57U C79U A100C  -0.594
145. A2U A37U C62U C72U U78A C124G  -0.559
146. C3G G128C  -0.539
147. C3A C104U  -0.516
148. C3U C56G  -0.409
149. C3A C124A  -0.333
150. C3G C40G C72U A121G U130G  -0.331
151. C3U C72A  -0.325
152. C3U U78C U87G  -0.313
153. C3U A83U  -0.257
154. C3U C13U U59A  -0.207
155. C3U C53A C56A G69U  -0.204
156. C3U C72U  -0.173
157. A2G G71U  -0.153
158. A2G C97U G117A A119G  -0.0934
159. C3U C40U G60U  0.0261
160. A2G G61A  0.0396
161. A2G C13G C86U C123A U133C  0.0468
162. A2G G36C G48U G52U U59G C79G U112C  0.109
163. C3A G60A U112C  0.261
164. A2U G120C G135A  0.456
165. C3U G77U G120C  0.534
166. A2G C12U C56A C97U C124U  0.631
167. C3A C79U C124G  0.849
